Test results published in the supplement of paper PMC7125110.
± gives the standard error. This sample holds only a part of the variants without activity.

B1: glmS ribozyme (parent)
chain: AUAAAAGCGCCAGAACUACAGAAAUGUAGUUGACGAGGAGGAGGUUUAUCGAAUUUUCGGCGGAUGCCUCCAAA

How the values were obtained:
Conditions in all cases: with glucosamine-6-phosphate
glucosamine-6-phosphate [1] = variants of: B1; experiment: self-cleavage kobs at 160 uM GlcN6P; higher = faster cleavage; RNA array
How it was run: (§1)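 The measurements used barcoded ribozyme variants on sequenced MiSeq chips, transcribed in situ by E. coli RNA polymerase and tracked at 37 °C with a hybridised Cy3 probe. Glucosamine-6-phosphate, 40 μM to 10 mM in HEPES/KCl/Mg(OAc)2 buffer, was flowed in while tiles were imaged over ~14 h. Baseline-normalised signals, also normalised to non-cleaving reference variants, gave per-tile medians that were fit to one- or two-exponential decays for kobs. kcat and KM resulted from weighted Michaelis–Menten fits across concentrations.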

glucosamine-6-phosphate [2] = variants of: B1; experiment: self-cleavage kobs at 640 uM GlcN6P; higher = faster cleavage; RNA array
How it was run: as §1

glucosamine-6-phosphate [3] = variants of: B1; experiment: self-cleavage kobs at 2500 uM GlcN6P; higher = faster cleavage; RNA array
How it was run: as §1

glucosamine-6-phosphate [4] = variants of: B1; experiment: self-cleavage kobs at 10000 uM GlcN6P; higher = faster cleavage; RNA array
How it was run: as §1

Row | Variant | self-cleavage kobs at 160 uM GlcN6P (glucosamine-6-phosphate [1]) | self-cleavage kobs at 640 uM GlcN6P (glucosamine-6-phosphate [2]) | self-cleavage kobs at 2500 uM GlcN6P (glucosamine-6-phosphate [3]) | self-cleavage kobs at 10000 uM GlcN6P (glucosamine-6-phosphate [4])
1 | AUAAAAACGCCAGAACUACAGAAAUGUAGUUGACGAGUAGGAGCUUUAACGAUUUCUCGGCGGAUGCCUCCAAA [G7A G38U G44C U49A A53U U56C] | < 1e-05 s⁻¹ | – | – | –
2 | AUAAAACCGGCAGAACUACAGAAAUGUAGUUGACGAGGAGGAGGUUUAUCGAAUUUUCGGCGGAUGCCUCCAAA [G7C C10G] | < 1e-05 s⁻¹ | < 1e-05 s⁻¹ | < 1e-05 s⁻¹ | –
3 | AUAAAAUCGCCGGAACUACAGAAAUGUAGUUGACGAGGAGGAGGCGUAUCGAAUUUUCGGCGGAUGCCUCUAAA [G7U A12G U45C U46G C71U] | < 1e-05 s⁻¹ | – | < 1e-05 s⁻¹ | –
4 | AUAAAAACGCCAAAACUACAGAAAUGUAGUUGACGACGAGGAGGUGUAUCGAAUUUUCGGCGGAUGCCUCCAAA [G7A G13A G37C U46G] | < 1e-05 s⁻¹ | – | < 1e-05 s⁻¹ | –
5 | AUAAAAUCGCCAGAACUACAGAAAUGUAGUUGACGAGGACGAGUUUCAUCUAAUUUUCGGCGGAUGCCUCCAAA [G7U G40C G44U U47C G51U] | < 1e-05 s⁻¹ | – | < 1e-05 s⁻¹ | –
6 | AUAAAAACGCCAGAACUACAGAAAUGUAUUUGACGAGGAGGAGGUUUAUCGAAUUUUCGGCGGAUGCCUCCAAA [G7A G29U] | < 1e-05 s⁻¹ | < 1e-05 s⁻¹ | – | –
7 | AUAAAACCGCCAGAACUACAGAAAUGUAGUUGACGAGGAGGAGGUUUAUCGACUUUUCGGCGGAUGCCUCCAAA [G7C A53C] | < 1e-05 s⁻¹ | < 1e-05 s⁻¹ | < 1e-05 s⁻¹ | –
8 | AUAAAACCGCCAGCACUACAGAAAUGUAGUUGACGAGGAGGAGGUGUAUCGAAUUUUCGGCGGAUGCCUCCAAA [G7C A14C U46G] | < 1e-05 s⁻¹ | < 1e-05 s⁻¹ | < 1e-05 s⁻¹ | –
9 | AUAAAACCGCCAGAAUUACAGAAAUGUAGUUGACGAGGAGGAGUUUUAUCGAAUUUUCGGCGGAUGCCUCCAAA [G7C C16U G44U] | < 1e-05 s⁻¹ | – | – | –
10 | AUAAAAUCGCCAGAACUACAGAAAUGUAGUUGACGAGGAUGAGGUUUAUCGAAUUUUCGGCGGAUGCCUCCAAA [G7U G40U] | < 1e-05 s⁻¹ | < 1e-05 s⁻¹ | < 1e-05 s⁻¹ | < 1e-05 s⁻¹
11 | AUAAAACCGCCAGAACUACAGAAAUGUAGUUGACGAGGAGGAGGUUAAUCGAAUUUUCGGCGGAUGCCUCCAAA [G7C U47A] | < 1e-05 s⁻¹ | < 1e-05 s⁻¹ | – | < 1e-05 s⁻¹
12 | AUAAAAACGCCAGAACUACAGAAAUGUAGUUGACAAGGAGGAGGUUUAUCCAAUUUUCGGCGGAUGCCUCCAAA [G7A G35A G51C] | < 1e-05 s⁻¹ | – | < 1e-05 s⁻¹ | –
13 | AUAAAAACGCCAGAACUACAGAAAUGUAGUUGACGAGGAGGAGGUUUAUCGAAUUCUCGGCGGAUGCCUCCAAA [G7A U56C] | < 1e-05 s⁻¹ | < 1e-05 s⁻¹ | < 1e-05 s⁻¹ | < 1e-05 s⁻¹
14 | AUAAAAACUCCAGAACUACAGAAAUGUAGUUGACGAGGAGGAGGUUUAUCGAAUUUUAGGCGGAUGCCUCCAAA [G7A G9U C58A] | < 1e-05 s⁻¹ | < 1e-05 s⁻¹ | – | –
15 | AUAAAACCGCCAGAACUACAGAAUUGUAGUUGACGAGGAGGAGGUAUAUCGAAUUUUCGGCGGAUGCUUCCAAA [G7C A24U U46A C68U] | < 1e-05 s⁻¹ | < 1e-05 s⁻¹ | – | < 1e-05 s⁻¹
16 | AUAAAAUCGCCAGAACUACAGAAAUGUAGUUGACGAGCAGGAGGUUUAUAGAAUUUUCGGCGGAUGCCUCCAAA [G7U G38C C50A] | < 1e-05 s⁻¹ | < 1e-05 s⁻¹ | – | –

Row | Variant | self-cleavage kobs at 160 uM GlcN6P (glucosamine-6-phosphate [1]) | self-cleavage kobs at 640 uM GlcN6P (glucosamine-6-phosphate [2]) | self-cleavage kobs at 2500 uM GlcN6P (glucosamine-6-phosphate [3]) | self-cleavage kobs at 10000 uM GlcN6P (glucosamine-6-phosphate [4])
17 | AUAAAAACGCCAGAACUACAGAAAUGUAGUUUAUGAGGAGGAGGUUUAUCGAAUUUUCGGCGGAUGCCUCCAAA [G7A G32U C34U] | < 1e-05 s⁻¹ | – | – | –
18 | AUAAAAUCGCCAGAACUACAGAAAUGUAGUUGACGAGGAGCAGGUUUAUCGGAUUUUCGGCGGAUGCCUCCAAA [G7U G41C A52G] | < 1e-05 s⁻¹ | < 1e-05 s⁻¹ | < 1e-05 s⁻¹ | < 1e-05 s⁻¹
19 | AUAAAAUCGCCAGCACUACAGAAAUGUAGUUGACGAGGAGGAGGUUUAUCGAAUUUUCGGCGGAUUCCUCCAAA [G7U A14C G66U] | < 1e-05 s⁻¹ | – | < 1e-05 s⁻¹ | –
20 | AUAAAAUCGCCAGAACUACAGAAAUGUAGUUGACAACGAGGAGGUGAAUCGAAUUUUCGGCGGAUGCCUGCAAA [G7U G35A G37C U46G U47A C70G] | < 1e-05 s⁻¹ | < 1e-05 s⁻¹ | < 1e-05 s⁻¹ | –
21 | AUAAAAUCGCCUGAACUACAGAAAUGUAGUUGACGAGGAGGAGGGUUAUCGAAUUUUCGGCGGAUGCCUCCAAA [G7U A12U U45G] | < 1e-05 s⁻¹ | < 1e-05 s⁻¹ | < 1e-05 s⁻¹ | –
22 | AUAAAAUCGCCACAACUACAGAAAUGUAGUUGACGAGGGGGAGGUUUAUCGAAUUUUCGGCGGAUGCCUCCAAA [G7U G13C A39G] | < 1e-05 s⁻¹ | < 1e-05 s⁻¹ | < 1e-05 s⁻¹ | –
23 | AUAAAAUCGCCAGAACUACAGAAAUGUAGUUGACGUGGAGGAGGUUUAUCGAAUUUUCGGCGGAUGCCUCAAAA [G7U A36U C71A] | < 1e-05 s⁻¹ | – | – | –
24 | AUAAAAUCGCCAGAACUACAGAAAUGUAGUUGACGAAGAGGAGGUUUCUCGAAUUUUCGGCGGAUGCCUCCAAA [G7U G37A A48C] | < 1e-05 s⁻¹ | < 1e-05 s⁻¹ | < 1e-05 s⁻¹ | < 1e-05 s⁻¹
25 | AUAAAAUCGUCAGAACUACAGAAAUGUAGUUGACAAGGAGGAGGUUUAUCGAAUUUUCGGCGGAUGCGUCCAAA [G7U C10U G35A C68G] | 0.000125 ± 5.5e-05 s⁻¹ | – | – | 0.000284 ± 0.00012 s⁻¹
26 | AUAAAACCGCCAGUAGUACAGAAAUGUAGAUGACGAGGAGGAGGUUUAUCGAAUUAUCGGCGGAUGGCUCCAAA [G7C A14U C16G U30A U56A C67G] | < 1e-05 s⁻¹ | < 1e-05 s⁻¹ | – | –
27 | AUAAAAUCGCCAGAACUACAGAAAUGUAGUUGACGAGGAGGAUGUUUAUCGAAUUUUCGGCGGAUGCUUCCAAA [G7U G43U C68U] | < 1e-05 s⁻¹ | < 1e-05 s⁻¹ | < 1e-05 s⁻¹ | < 1e-05 s⁻¹
28 | AUAAAACCGCCAGAACUACAGAAAUGUAGUUGACGAGGAGGAGGUUUAUCGAAUUUUCGGCGGAUGCUUCCAAA [G7C C68U] | < 1e-05 s⁻¹ | < 1e-05 s⁻¹ | < 1e-05 s⁻¹ | < 1e-05 s⁻¹
29 | AUAAAACCGCCAGAACUACAGAAAUGUAGUUGCCGAGGAGGAGGUUUAUCGAAUUUUCAGCGGAUGCCUCCAAA [G7C A33C G59A] | < 1e-05 s⁻¹ | – | – | –
30 | AUAAAAUCCGCAGAACUACAGAAAUGUAGUUGACGAGGAGGAGGUUUAUCGACUUUUCGGUGGAUGCCUCCAAA [G7U G9C C10G A53C C61U] | < 1e-05 s⁻¹ | – | < 1e-05 s⁻¹ | –
31 | AUAAAACCGCCAGAACUACAGAAAUGUAUUUGGCGAGGAGGAGGUUUAUCGAAUUUUCGGCGGAUGCCUCCAAA [G7C G29U A33G] | < 1e-05 s⁻¹ | < 1e-05 s⁻¹ | – | –
